Key:
Assay in all cases: receptor-Fc IP
[1] = target: T1, VEGFR-2-Fc (UniProt P35968 20-322)
T1 construct: domain: first 3 Ig domains; conditioned supernatant of 293T cells; also called VEGFR-2-Fc fusion protein; not shown: Fc fragment of the pIg vector
Procedure, shortened: (§1)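 Binding of ligand from sample supernatant measured by pentahistidine-antibody immunoprecipitation. IP mix: PBS with 1.5% BSA, 0.06% Tween 20, 3 μg/ml heparin and 400 ng/ml fusion protein, added 1:2 to sample supernatant.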

[2] = target: T2, VEGFR-3-Fc (UniProt P35916 25-328)
T2 construct: domain: first three Ig domains; conditioned supernatant of 293T cells; also called VEGFR-3-Fc fusion protein; not shown: Fc fragment of the pIg vector
T2 sequence (looked up): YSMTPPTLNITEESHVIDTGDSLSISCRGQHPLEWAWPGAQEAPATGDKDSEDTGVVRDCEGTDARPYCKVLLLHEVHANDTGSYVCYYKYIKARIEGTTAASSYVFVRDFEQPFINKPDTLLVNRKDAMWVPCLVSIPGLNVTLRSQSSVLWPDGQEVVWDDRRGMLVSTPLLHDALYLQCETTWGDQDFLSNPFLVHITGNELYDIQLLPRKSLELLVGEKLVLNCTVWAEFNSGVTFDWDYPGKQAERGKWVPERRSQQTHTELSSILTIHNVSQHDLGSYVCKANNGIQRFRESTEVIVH
Procedure, shortened: as §1

[3] = target: T3, VEGFR-1-Fc (UniProt P17948 27-338)
T3 construct: domain: first three Ig domains; expressed in Drosophila S2 cells, purified on Protein A sepharose; also called VEGFR-1-Fc fusion protein; not shown: Fc fragment from the Signal-pIgPlus vector
Procedure, shortened: as §1

Measured: binding result

T3 sequence (P17948 27-338): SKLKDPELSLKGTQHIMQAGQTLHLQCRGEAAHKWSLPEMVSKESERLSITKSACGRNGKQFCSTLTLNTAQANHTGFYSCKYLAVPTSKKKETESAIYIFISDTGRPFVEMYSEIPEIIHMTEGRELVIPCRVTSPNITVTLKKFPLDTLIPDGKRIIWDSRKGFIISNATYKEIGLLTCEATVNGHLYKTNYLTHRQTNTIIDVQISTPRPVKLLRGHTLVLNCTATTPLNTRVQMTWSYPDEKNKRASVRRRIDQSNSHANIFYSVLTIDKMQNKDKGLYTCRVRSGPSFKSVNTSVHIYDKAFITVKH
T1 sequence (P35968 20-322): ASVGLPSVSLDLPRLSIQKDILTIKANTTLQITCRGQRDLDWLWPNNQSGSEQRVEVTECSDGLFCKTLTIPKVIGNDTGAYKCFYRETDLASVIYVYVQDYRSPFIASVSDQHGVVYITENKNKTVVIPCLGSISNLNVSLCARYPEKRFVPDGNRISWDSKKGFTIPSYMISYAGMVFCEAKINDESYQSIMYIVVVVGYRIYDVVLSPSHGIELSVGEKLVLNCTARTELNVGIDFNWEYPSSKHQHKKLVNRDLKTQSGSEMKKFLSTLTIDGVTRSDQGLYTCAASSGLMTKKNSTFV

B1: 82-1 (ligand)
chain: AHYNTEILKFMDVYQRSYCHPIETLVDIFQEFGVATNTFFKPPCVSVYRCGGCCNDEGLECVPTEESNITMQIMRIKPHQGQHIGEMSFLQHNKCECRPKKD
no binding: [1] | [2] | [3]

B2: 82-3 (ligand)
chain: AHYNTEILKFMDVYQRSYCHPIETLVDIFQEFGVATNTFFKPPCVSVYRCGGCCNSEGLQCVPTEESNITMQIMRIKPHQGQHIGEMSFLQHNKCECRPKKD
no binding: [1] | [2] | [3]

B3: 74-15 (ligand)
chain: GQNHHEVVKSIDNEWRKTQCMPREVCIDVGKEFGVATNTFFKPSCVPLMRCGGCCNSEGLQCVPTEESNITMQIMRITVPLSQGPKPVTISFANHTSCRCMSKLD
no binding: [1] | [2] | [3]

B4: 74-2 (ligand)
chain: GQNHHEVVKSIDNEWRKTQCMPREVCIDVGKEFGVATNTFFKPSCVPLMRCGGCCNDEGLECMNTSTSYLSKTLFEIKPHQGQHIGEMSFLQHNKCECRPKKD
no binding: [1] | [2] | [3]

B5: 74-4 (ligand)
chain: GQNHHEVVKSIDNEWRKTQCMPREVCIDVGKEFGVATNTFFKPSCVPLMRCGGCCNSEGLQCMNTSTSYLSKTLFEIKPHQGQHIGEMSFLQHNKCECRPKKD
no binding: [1] | [2] | [3]

B6: 74-6 (ligand)
chain: GQNHHEVVKSIDNEWRKTQCMPREVCIDVGKEFGVATNTFFKPSCVPLMRCGGCCNDEGLECMNTSTSYLSKTLFEIKPHQGQHIGEMSFANHTSCRCMSKLD
no binding: [1] | [2] | [3]

B7: 73-10 (ligand)
chain: GQNHHEVVKSIDNEWRKTQCMPREVCIDVGKEYPDEIEYIFKPPCVSVYRCGGCCNDEGLECMNTSTSYLSKTLFEITVPLSQGPKPVTISFLQHNKCECRPKKD
no binding: [1] | [2] | [3]

B8: 73-12 (ligand)
chain: GQNHHEVVKSIDNEWRKTQCMPREVCIDVGKEYPDEIEYIFKPPCVSVYRCGGCCNSEGLQCMNTSTSYLSKTLFEITVPLSQGPKPVTISFLQHNKCECRPKKD
no binding: [1] | [2] | [3]

B9: 74-1 (ligand)
chain: GQNHHEVVKSIDNEWRKTQCMPREVCIDVGKEFGVATNTFFKPSCVPLMRCGGCCNDEGLECVPTEESNITMQIMRIKPHQGQHIGEMSFLQHNKCECRPKKD
no binding: [1] | [2] | [3]

B10: 74-3 (ligand)
chain: GQNHHEVVKSIDNEWRKTQCMPREVCIDVGKEFGVATNTFFKPSCVPLMRCGGCCNSEGLQCVPTEESNITMQIMRIKPHQGQHIGEMSFLQHNKCECRPKKD
no binding: [1] | [2] | [3]

B11: 73-1 (ligand)
chain: GQNHHEVVKSIDNEWRKTQCMPREVCIDVGKEYPDEIEYIFKPPCVSVYRCGGCCNDEGLECVPTEESNITMQIMRIKPHQGQHIGEMSFLQHNKCECRPKKD
no binding: [1] | [2] | [3]

B12: 73-3 (ligand)
chain: GQNHHEVVKSIDNEWRKTQCMPREVCIDVGKEYPDEIEYIFKPPCVSVYRCGGCCNSEGLQCVPTEESNITMQIMRIKPHQGQHIGEMSFLQHNKCECRPKKD
no binding: [1] | [2] | [3]

B13: 73-5 (ligand)
chain: GQNHHEVVKSIDNEWRKTQCMPREVCIDVGKEYPDEIEYIFKPPCVSVYRCGGCCNDEGLECVPTEESNITMQIMRIKPHQGQHIGEMSFANHTSCRCMSKLD
no binding: [1] | [2] | [3]

B14: 73-2 (ligand)
chain: GQNHHEVVKSIDNEWRKTQCMPREVCIDVGKEYPDEIEYIFKPPCVSVYRCGGCCNDEGLECMNTSTSYLSKTLFEIKPHQGQHIGEMSFLQHNKCECRPKKD
no binding: [1] | [2] | [3]

B15: 74-16 (ligand)
chain: GQNHHEVVKSIDNEWRKTQCMPREVCIDVGKEFGVATNTFFKPSCVPLMRCGGCCNSEGLQCMNTSTSYLSKTLFEITVPLSQGPKPVTISFANHTSCRCMSKLD
no binding: [1] | [2] | [3]
